Data set [1] deals with HeLa Kyoto. In words: solubility in G1/S (NP-40 vs SDS abundance) (log2 ratio); higher = more soluble. To be noted: cell cycle stage: G1/S.
In data set [2] the test system is HeLa Kyoto. In words: solubility change mitosis vs G1/S (difference of NP-40 vs SDS log2 ratios) (log2 ratio difference); higher = more soluble in mitosis.
Data set [3] deals with HeLa Kyoto. Kind of data set: melting temperature (median over replicates), in situ; higher = more thermally stable.
Data set [4] relates to HeLa Kyoto. Kind of data set: thermal stability score vs G1/S (z-score of summed log2 fold changes over temperatures); higher = more thermally stable than in G1/S.
Setting [5] is: cell cycle stage: early G1 (4.5 h after nocodazole release).

The text below walks through data of the supplement of paper PMC5998384.
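Throughout, for melting temperature (median over replicates), in situ: HeLa Kyoto cells synchronized by double thymidine or nocodazole block, proteins quantified by TMT10plex mass spectrometry, three independent biological replicates.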
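Throughout, for solubility change mitosis vs G1/S (difference of NP-40 vs SDS log2 ratios): synchronized HeLa Kyoto cells (double thymidine block for G1/S, nocodazole release for mitosis), protein amounts in NP-40 versus SDS lysates quantified by mass spectrometry, three biological replicates.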
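Throughout, for solubility in G1/S (NP-40 vs SDS abundance): HeLa Kyoto cells arrested at G1/S by double thymidine block, proteins quantified by TMT10plex mass spectrometry in mild NP-40 versus SDS extracts, three biological replicates.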
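Throughout, for thermal stability score vs G1/S (z-score of summed log2 fold changes over temperatures): synchronized HeLa Kyoto cells, proteins quantified by TMT10plex mass spectrometry, three biological replicates, mitosis taken 0.5 h after nocodazole release, G1/S directly after double thymidine block.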

As for “MEQPKGVDWTVIILTCQYKDSVQVFQRELEVRQKREQIPAGTLLLAVEDPEKRVGSGGATLNALLVAAEHLSARAGFTVVTSDVLHSAWILILHMGRDFPFDDCGRAFTCLPVENPEAPVEALVCNLDCLLDIMTYRLGPGSPPGVWVCSTDMLLSVPANPGISWDSFRGARVIALPGSPAYAQNHGVYLTDPQGLVLDIYYQGTEAEIQRCVRPDGRVPLVSGVVFFSVETAERLLATHVSPPLDACTYLGLDSGARPVQLSLFFDILHCMAENVTREDFLVGRPPELGQGDADVAGYLQSARAQLWRELRDQPLTMAYVSSGSYSYMTSSASEFLLSLTLPGAPGAQIVHSQVEEQQLLAAGSSVVSCLLEGPVQLGPGSVLQHCHLQGPIHIGAGCLVTGLDTAHSKALHGRELRDLVLQGHHTRLHGSPGHAFTLVGRLDSWERQGAGTYLNVPWSEFFKRTGVRAWDLWDPETLPAEYCLPSARLFPVLHPSRELGPQDLLWMLDHQEDGGEALRAWRASWRLSWEQLQPCLDRAATLASRRDLFFRQALHKARHVLEARQDLSLRPLIWAAVREGCPGPLLATLDQVAAGAGDPGVAARALACVADVLGCMAEGRGGLRSGPAANPEWMRPFSYLECGDLAAGVEALAQERDKWLSRPALLVRAARHYEGAGQILIRQAVMSAQHFVSTEQVELPGPGQWVVAECPARVDFSGGWSDTPPLAYELGGAVLGLAVRVDGRRPIGARARRIPEPELWLAVGPRQDEMTVKIVCRCLADLRDYCQPHAPGALLKAAFICAGIVHVHSELQLSEQLLRTFGGGFELHTWSELPHGSGLGTSSILAGTALAALQRAAGRVVGTEALIHAVLHLEQVLTTGGGWQDQVGGLMPGIKVGRSRAQLPLKVEVEEVTVPEGFVQKLNDHLLLVYTGKTRLARNLLQDVLRSWYARLPAVVQNAHSLVRQTEECAEGFRQGSLPLLGQCLTSYWEQKKLMAPGCEPLTVRRMMDVLAPHVHGQSLAGAGGGGFLYLLTKEPQQKEALEAVLAKTEGLGNYSIHLVEVDTQGLSLKLLGTEASTCCPFP [FUK]”, the “solubility in G1/S (log2)” value in data set [1] is -0.0525. The “solubility change mitosis (log2)” value in data set [2] is -0.182. Besides, the melting temperature came out at 56.6 °C in data set [3] (cell cycle stage: G1/S) and 54.8 °C in data set [3] (cell cycle stage: mitosis). Moreover, the thermal stability score in data set [4] (setting [5]) was -0.477; in data set [4] (cell cycle stage: mitosis), -1.02.

“MERAAPSRRVPLPLLLLGGLALLAAGVDADVLLEACCADGHRMATHQKDCSLPYATESKECRMVQEQCCHSQLEELHCATGISLANEQDRCATPHGDNASLEATFVKRCCHCCLLGRAAQAQGQSCEYSLMVGYQCGQVFQACCVKSQETGDLDVGGLQETDKIIEVEEEQEDPYLNDRCRGGGPCKQQCRDTGDEVVCSCFVGYQLLSDGVSCEDVNECITGSHSCRLGESCINTVGSFRCQRDSSCGTGYELTEDNSCKDIDECESGIHNCLPDFICQNTLGSFRCRPKLQCKSGFIQDALGNCIDINECLSISAPCPIGHTCINTEGSYTCQKNVPNCGRGYHLNEEGTRCVDVDECAPPAEPCGKGHRCVNSPGSFRCECKTGYYFDGISRMCVDVNECQRYPGRLCGHKCENTLGSYLCSCSVGFRLSVDGRSCEDINECSSSPCSQECANVYGSYQCYCRRGYQLSDVDGVTCEDIDECALPTGGHICSYRCINIPGSFQCSCPSSGYRLAPNGRNCQDIDECVTGIHNCSINETCFNIQGGFRCLAFECPENYRRSAATLQQEKTDTVRCIKSCRPNDVTCVFDPVHTISHTVISLPTFREFTRPEEIIFLRAITPPHPASQANIIFDITEGNLRDSFDIIKRYMDGMTVGVVRQVRPIVGPFHAVLKLEMNYVVGGVVSHRNVVNVHIFVSEYWF [FBLN1]”: the “solubility in G1/S (log2)” value in data set [1] is -0.102. In addition, in data set [2], the “solubility change mitosis (log2)” value is -0.045. For the same sequence, the melting temperature in data set [3] (cell cycle stage: G1/S) is 54 °C; in data set [3] (cell cycle stage: mitosis), 55.4 °C. Besides, the thermal stability score in data set [4] (setting [5]) was determined as 1.49; in data set [4] (cell cycle stage: mitosis), 0.0681.

On to “MERAESSSTEPAKAIKPIDRKSVHQICSGQVVLSLSTAVKELVENSLDAGATNIDLKLKDYGVDLIEVSDNGCGVEEENFEGLTLKHHTSKIQEFADLTQVETFGFRGEALSSLCALSDVTISTCHASAKVGTRLMFDHNGKIIQKTPYPRPRGTTVSVQQLFSTLPVRHKEFQRNIKKEYAKMVQVLHAYCIISAGIRVSCTNQLGQGKRQPVVCTGGSPSIKENIGSVFGQKQLQSLIPFVQLPPSDSVCEEYGLSCSDALHNLFYISGFISQCTHGVGRSSTDRQFFFINRRPCDPAKVCRLVNEVYHMYNRHQYPFVVLNISVDSECVDINVTPDKRQILLQEEKLLLAVLKTSLIGMFDSDVNKLNVSQQPLLDVEGNLIKMHAADLEKPMVEKQDQSPSLRTGEEKKDVSISRLREAFSLRHTTENKPHSPKTPEPRRSPLGQKRGMLSSSTSGAISDKGVLRPQKEAVSSSHGPSDPTDRAEVEKDSGHGSTSVDSEGFSIPDTGSHCSSEYAASSPGDRGSQEHVDSQEKAPKTDDSFSDVDCHSNQEDTGCKFRVLPQPTNLATPNTKRFKKEEILSSSDICQKLVNTQDMSASQVDVAVKINKKVVPLDFSMSSLAKRIKQLHHEAQQSEGEQNYRKFRAKICPGENQAAEDELRKEISKTMFAEMEIIGQFNLGFIITKLNEDIFIVDQHATDEKYNFEMLQQHTVLQGQRLIAPQTLNLTAVNEAVLIENLEIFRKNGFDFVIDENAPVTERAKLISLPTSKNWTFGPQDVDELIFMLSDSPGVMCRPSRVKQMFASRACRKSVMIGTALNTSEMKKLITHMGEMDHPWNCPHGRPTMRHIANLGVISQN [PMS2]”, for which, in data set [1], the “solubility in G1/S (log2)” value was -0.0345. Moreover, the “solubility change mitosis (log2)” value in data set [2] was -0.029. For the same sequence, the melting temperature in data set [3] (cell cycle stage: G1/S) stood at 48.3 °C; in data set [3] (cell cycle stage: mitosis), 49.7 °C. In addition, the thermal stability score was found to be 1.02 in data set [4] (setting [5]) and 1.74 in data set [4] (cell cycle stage: mitosis).
